Here are results for 31 molecules from patent publication US20220010021A1 (Sanofi, published 2022).

Assay [1] concerns the target human FGFR1c + KLB receptor complex on HEK293 iLite FGF21 reporter cells (human, UniProt P11362 22-822; Q86Z14 1-1044). Briefly: cell-based or functional assay.
The target in assay [2] is T1, human beta-Klotho (KLB) (human, UniProt Q86Z14 53-997).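 Note: Anti-KLB antibodies captured on anti-human Fc CM5 chip, KLB injected as analyte, 180 s association and 1800 s dissociation, fitted to 1:1 binding model.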
T1 construct: bought protein; also called human KLB
T1 sequence (looked up): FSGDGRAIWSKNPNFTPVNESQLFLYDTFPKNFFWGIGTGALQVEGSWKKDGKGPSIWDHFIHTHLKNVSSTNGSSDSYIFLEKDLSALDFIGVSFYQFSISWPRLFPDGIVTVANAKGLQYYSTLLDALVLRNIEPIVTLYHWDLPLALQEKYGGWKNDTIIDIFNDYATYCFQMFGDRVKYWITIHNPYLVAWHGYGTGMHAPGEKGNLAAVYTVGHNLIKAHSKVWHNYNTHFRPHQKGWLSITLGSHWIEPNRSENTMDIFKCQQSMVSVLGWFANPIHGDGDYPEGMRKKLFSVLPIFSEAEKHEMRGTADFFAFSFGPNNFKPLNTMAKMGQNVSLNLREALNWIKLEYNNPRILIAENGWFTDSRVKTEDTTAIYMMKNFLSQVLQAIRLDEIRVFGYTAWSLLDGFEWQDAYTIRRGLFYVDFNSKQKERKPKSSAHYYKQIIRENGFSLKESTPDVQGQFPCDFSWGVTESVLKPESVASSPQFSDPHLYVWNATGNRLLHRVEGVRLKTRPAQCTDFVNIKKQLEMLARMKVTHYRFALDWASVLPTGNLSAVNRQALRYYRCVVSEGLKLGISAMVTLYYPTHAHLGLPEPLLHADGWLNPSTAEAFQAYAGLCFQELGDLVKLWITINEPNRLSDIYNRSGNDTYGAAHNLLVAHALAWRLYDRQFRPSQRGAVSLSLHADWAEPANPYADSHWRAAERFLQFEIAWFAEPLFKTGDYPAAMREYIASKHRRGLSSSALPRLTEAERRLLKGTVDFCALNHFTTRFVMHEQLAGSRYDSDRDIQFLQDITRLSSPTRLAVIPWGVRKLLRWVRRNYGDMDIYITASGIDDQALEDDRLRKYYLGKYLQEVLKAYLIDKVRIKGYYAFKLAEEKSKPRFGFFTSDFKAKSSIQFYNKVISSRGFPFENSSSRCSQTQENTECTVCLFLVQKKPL
Briefly: SPR. (In general: SPR reads the build-up and loss of mass on a sensor chip optically.)

Positions count from the first letter of the chain named.

Sequence of human FGFR1c + KLB receptor complex on HEK293 iLite FGF21 reporter cells (P11362 22-822, chain 1 of 2): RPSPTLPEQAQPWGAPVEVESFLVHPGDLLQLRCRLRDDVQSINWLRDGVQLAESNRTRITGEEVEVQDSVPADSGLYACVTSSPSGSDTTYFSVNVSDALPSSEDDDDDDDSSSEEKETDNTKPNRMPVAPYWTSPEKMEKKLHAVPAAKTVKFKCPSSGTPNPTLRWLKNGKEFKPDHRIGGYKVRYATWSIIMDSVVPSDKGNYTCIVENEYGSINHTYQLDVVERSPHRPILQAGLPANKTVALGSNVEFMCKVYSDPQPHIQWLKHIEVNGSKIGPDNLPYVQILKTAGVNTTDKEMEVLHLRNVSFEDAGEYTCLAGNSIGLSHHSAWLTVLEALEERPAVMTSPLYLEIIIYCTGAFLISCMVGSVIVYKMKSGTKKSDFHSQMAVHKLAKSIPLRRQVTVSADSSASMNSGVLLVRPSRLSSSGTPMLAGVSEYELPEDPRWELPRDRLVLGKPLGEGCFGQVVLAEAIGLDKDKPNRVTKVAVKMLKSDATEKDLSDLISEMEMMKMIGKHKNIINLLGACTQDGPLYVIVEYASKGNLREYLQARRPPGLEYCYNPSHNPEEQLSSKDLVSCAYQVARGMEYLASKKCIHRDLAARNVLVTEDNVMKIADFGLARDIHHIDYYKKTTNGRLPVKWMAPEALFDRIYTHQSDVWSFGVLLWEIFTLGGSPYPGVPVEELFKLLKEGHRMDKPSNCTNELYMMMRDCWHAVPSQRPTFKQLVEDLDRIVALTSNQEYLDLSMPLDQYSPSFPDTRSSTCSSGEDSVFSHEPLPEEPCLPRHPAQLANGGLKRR
Sequence of human FGFR1c + KLB receptor complex on HEK293 iLite FGF21 reporter cells (Q86Z14 whole entry, chain 2 of 2): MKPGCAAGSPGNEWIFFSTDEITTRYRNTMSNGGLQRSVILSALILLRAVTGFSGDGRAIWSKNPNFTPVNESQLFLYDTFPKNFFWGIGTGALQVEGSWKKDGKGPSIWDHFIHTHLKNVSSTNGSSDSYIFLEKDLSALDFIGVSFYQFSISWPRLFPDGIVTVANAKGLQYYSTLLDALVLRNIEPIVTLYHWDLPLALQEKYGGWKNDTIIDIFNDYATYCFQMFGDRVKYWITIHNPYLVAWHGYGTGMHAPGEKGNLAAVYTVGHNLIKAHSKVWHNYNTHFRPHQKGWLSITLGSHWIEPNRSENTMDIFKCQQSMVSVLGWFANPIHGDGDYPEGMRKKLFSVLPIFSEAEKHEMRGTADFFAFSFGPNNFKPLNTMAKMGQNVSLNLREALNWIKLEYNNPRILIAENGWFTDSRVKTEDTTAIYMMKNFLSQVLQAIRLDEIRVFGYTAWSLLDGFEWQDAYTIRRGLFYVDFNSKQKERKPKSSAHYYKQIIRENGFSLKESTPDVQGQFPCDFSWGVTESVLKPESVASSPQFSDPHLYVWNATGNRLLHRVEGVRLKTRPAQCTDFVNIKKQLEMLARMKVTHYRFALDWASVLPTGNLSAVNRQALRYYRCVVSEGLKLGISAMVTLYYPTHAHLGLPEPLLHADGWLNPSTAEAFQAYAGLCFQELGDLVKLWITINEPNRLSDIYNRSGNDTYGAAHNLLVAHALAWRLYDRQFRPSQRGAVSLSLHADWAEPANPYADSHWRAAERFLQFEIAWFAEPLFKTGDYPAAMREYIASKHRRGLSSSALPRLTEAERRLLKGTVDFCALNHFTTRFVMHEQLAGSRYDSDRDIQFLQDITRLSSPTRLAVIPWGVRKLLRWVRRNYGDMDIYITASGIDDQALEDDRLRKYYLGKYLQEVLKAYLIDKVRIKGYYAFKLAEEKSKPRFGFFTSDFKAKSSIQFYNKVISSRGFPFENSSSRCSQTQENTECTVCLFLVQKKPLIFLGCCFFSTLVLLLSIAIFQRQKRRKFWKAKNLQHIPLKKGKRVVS

B1: Ab0201 (antibody, IgG4, V domains shown)
VH: QVTLKESGPVLVKPTETLTLTCTVSGFSLNNARVGVSWIRQPPGKALEWLAHIFSNDEKSYSTSLKSRLTISKDTSKSQVVLTMTNMDPVDTATYYCARSVVTGGYYYEGMDVWGQGTTVTVSS
VL: SYVLTQPPSVSVAPGQTARITCGGSNIGSESVHWYQQKPGQAPVLVVYDDSDRPSGIPERFSGSNSGNTATLTISRVEAGDEADYYCQVWDGNSDHVVFGGGTKLTVLG
notes: IgG4 PE
In the case of B1, in assay [1], the half-maximal effective concentration (EC50) (as a rule, the concentration giving half of the maximal effect) came to 50 pM and the Emax (commonly the maximal effect, on the per cent scale that the assay sets) was found to be 2490%. Besides, the koff – broadly, a measure of how fast the partners let go of each other – in assay [2] turned out to be 0.000336 s⁻¹.

B2: Ab0230 (antibody, IgG4, V domains shown)
VH: not shown
VL: B1 VL with S25N, D50S
notes: IgG4 PE
For the molecule B2, in assay [1], the EC50 was found to be 60 pM and the Emax came to 1610%. Moreover, the off-rate constant (koff) in assay [2] came to 0.000111 s⁻¹.

B3: Ab0219 (antibody, IgG4, V domains shown)
VH: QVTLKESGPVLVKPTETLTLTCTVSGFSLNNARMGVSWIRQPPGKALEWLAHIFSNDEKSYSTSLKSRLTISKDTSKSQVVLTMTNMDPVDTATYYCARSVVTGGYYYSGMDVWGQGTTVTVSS
VL: B1 VL with S25N, N93E
notes: IgG4 PE
B3: in assay [1], the EC50 was 20 pM and the maximal effect (Emax) came to 2490%. In assay [2], this molecule showed a koff of 0.000915 s⁻¹.

B4: Ab0218 (antibody, IgG4, V domains shown)
VH: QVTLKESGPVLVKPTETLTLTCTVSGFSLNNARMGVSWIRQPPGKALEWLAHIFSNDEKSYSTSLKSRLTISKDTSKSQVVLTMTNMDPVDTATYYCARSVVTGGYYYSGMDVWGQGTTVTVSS
VL: B1 VL with S25N, D91T
notes: IgG4 PE
Take B4: in assay [1], the EC50 was 2130 pM and the Emax worked out at 1060%. Also, the koff in assay [2] was found to be 0.00668 s⁻¹.

B5: Ab0216 (antibody, IgG4, V domains shown)
VH: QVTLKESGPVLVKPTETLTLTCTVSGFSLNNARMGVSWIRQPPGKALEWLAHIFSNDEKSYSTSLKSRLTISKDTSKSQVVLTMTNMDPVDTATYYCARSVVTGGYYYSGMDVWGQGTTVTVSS
VL: B1 VL with S25N, D49Y
notes: IgG4 PE
On to B5, for which, in assay [1], the EC50 worked out at 270 pM and the maximum response (Emax) amounted to 1180%. This molecule came in with a koff in assay [2] of 0.00984 s⁻¹.

B6: Ab0306 (antibody, IgG4, V domains shown)
VH: B1 VH
VL: B1 VL with N93E
notes: IgG4 PE
B6: in assay [1], the EC50 was 50 pM and the Emax was found to be 1330%. The off-rate constant (koff) in assay [2] was 0.000288 s⁻¹.

B7: Ab0298 (antibody, IgG4, V domains shown)
VH: B1 VH
VL: B1 VL with D49Y, D50E
notes: IgG4 PE
Consider B7, for which, in assay [1], the EC50 came out at 80 pM and the Emax came out at 1180%. In assay [2], this molecule yielded a koff of 0.0016 s⁻¹.

B8: Ab0208 (antibody, IgG4, V domains shown)
VH: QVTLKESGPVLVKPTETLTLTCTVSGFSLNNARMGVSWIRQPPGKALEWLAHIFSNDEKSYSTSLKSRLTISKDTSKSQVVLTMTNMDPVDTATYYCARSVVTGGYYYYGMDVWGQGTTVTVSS
VL: B1 VL
notes: IgG4 PE
On to B8, for which, in assay [1], the EC50 was 270 pM and the maximal effect (Emax) turned out to be 1270%. The molecule also returned a koff in assay [2] of 0.0021 s⁻¹.

B9: Ab0227 (antibody, IgG4, V domains shown)
VH: not shown
VL: B1 VL with S25N, D50Y
notes: IgG4 PE
Turning to B9, in assay [1], the 50% effective concentration (EC50) worked out at 60 pM and the Emax is 2340%. In addition, the off-rate (koff) in assay [2] came out at 0.000214 s⁻¹.

B10: Ab0308 (antibody, IgG4, V domains shown)
VH: B1 VH
VL: B1 VL with D49Y, N93E
notes: IgG4 PE
Consider B10, for which, in assay [1], the EC50 was determined as 60 pM and the Emax is 1070%. For the same molecule, the koff in assay [2] was found to be 0.0013 s⁻¹.

B11: Ab0222 (antibody, IgG4, V domains shown)
VH: not shown
VL: B1 VL with S25T
notes: IgG4 PE
For B11, in assay [1], the EC50 is 130 pM and the Emax was 2020%. In assay [2], this molecule had an off-rate constant (koff) of 0.000309 s⁻¹.

B12: Ab0202 (antibody, IgG4, V domains shown)
VH: B1 VH
VL: B1 VL with S25N, D49Y
notes: IgG4 PE
Turning to B12, in assay [1], the EC50 stood at 70 pM and the Emax is 1510%. The molecule further had a koff in assay [2] of 0.00161 s⁻¹.

B13: Ab0228 (antibody, IgG4, V domains shown)
VH: not shown
VL: B1 VL with S25N, D50A
notes: IgG4 PE
As for B13, in assay [1], the EC50 is 40 pM and the Emax was determined as 1380%. This molecule yielded a koff in assay [2] of 0.000258 s⁻¹.

B14: Ab0234 (antibody, IgG4, V domains shown)
VH: not shown
VL: B1 VL with S25N, N93S
notes: IgG4 PE
Regarding B14, in assay [1], the half-maximal effective concentration (EC50) was determined as 40 pM and the Emax turned out to be 1840%. The koff in assay [2] was determined as 0.00011 s⁻¹.

B15: Ab0225 (antibody, IgG4, V domains shown)
VH: not shown
VL: B1 VL with S25N, D49E
notes: IgG4 PE
For B15, in assay [1], the EC50 came out at 90 pM and the Emax was 1790%. Further, the koff in assay [2] was determined as 0.00104 s⁻¹.

B16: Ab0296 (antibody, IgG4, V domains shown)
VH: B1 VH
VL: B1 VL with D50E
notes: IgG4 PE
For the molecule B16, in assay [1], the EC50 turned out to be 60 pM and the Emax came to 1290%. This molecule returned a koff in assay [2] of 0.00137 s⁻¹.

B17: Ab0236 (antibody, IgG4, V domains shown)
VH: not shown
VL: B1 VL with S25N, N93A
notes: IgG4 PE
As to B17, in assay [1], the EC50 was 50 pM and the Emax came to 2190%. The koff in assay [2] worked out at 0.000151 s⁻¹.

B18: Ab0212 (antibody, IgG4, V domains shown)
VH: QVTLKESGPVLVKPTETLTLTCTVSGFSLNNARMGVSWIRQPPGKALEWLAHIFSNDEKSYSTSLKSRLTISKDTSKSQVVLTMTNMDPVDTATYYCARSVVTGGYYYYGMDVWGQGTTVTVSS
VL: B1 VL with S25N, N93E
notes: IgG4 PE
Turning to B18, in assay [1], the EC50 was determined as 70 pM and the Emax stood at 1640%. In assay [2], this molecule returned a koff of 0.00185 s⁻¹.

B19: Ab0203 (antibody, IgG4, V domains shown)
VH: B1 VH
VL: B1 VL with S25N, D50E
notes: IgG4 PE
For the molecule B19, in assay [1], the EC50 stood at 50 pM and the Emax turned out to be 1600%. In assay [2], this molecule returned a koff of 0.00151 s⁻¹.

B20: Ab0215 (antibody, IgG4, V domains shown)
VH: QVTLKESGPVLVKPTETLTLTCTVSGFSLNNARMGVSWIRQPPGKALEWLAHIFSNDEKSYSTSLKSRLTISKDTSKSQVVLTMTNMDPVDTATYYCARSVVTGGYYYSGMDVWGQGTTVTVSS
VL: B1 VL
notes: IgG4 PE
For B20, in assay [1], the EC50 turned out to be 40 pM and the Emax amounted to 2000%. The molecule further registered a koff in assay [2] of 0.00125 s⁻¹.

B21: Ab0297 (antibody, IgG4, V domains shown)
VH: B1 VH
VL: B1 VL with S25N, D49Y, D50E
notes: IgG4 PE
With B21, in assay [1], the EC50 worked out at 70 pM and the Emax is 1210%. The molecule also registered a koff in assay [2] of 0.00156 s⁻¹.

B22: Ab0217 (antibody, IgG4, V domains shown)
VH: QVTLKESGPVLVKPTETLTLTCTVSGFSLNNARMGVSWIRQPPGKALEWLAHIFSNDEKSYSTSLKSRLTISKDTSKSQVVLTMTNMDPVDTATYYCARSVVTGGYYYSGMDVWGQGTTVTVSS
VL: B1 VL with S25N, D50E
notes: IgG4 PE
Turning to B22, in assay [1], the EC50 was found to be 70 pM and the Emax is 1970%. Also, in assay [2], the koff was 0.002 s⁻¹.

B23: Ab0204 (antibody, IgG4, V domains shown)
VH: B1 VH
VL: B1 VL with S25N, D91T
notes: IgG4 PE
In the case of B23, in assay [1], the EC50 amounted to 40 pM and the Emax came out at 1420%. The molecule further yielded a koff in assay [2] of 0.00133 s⁻¹.

B24: Ab0307 (antibody, IgG4, V domains shown)
VH: B1 VH
VL: B1 VL with S25N, D49Y, N93E
notes: IgG4 PE
With B24, in assay [1], the EC50 came out at 60 pM and the Emax is 1150%. The molecule also returned a koff in assay [2] of 0.00118 s⁻¹.

B25: Ab0235 (antibody, IgG4, V domains shown)
VH: not shown
VL: B1 VL with S25N, N93D
notes: IgG4 PE
In the case of B25, in assay [1], the EC50 came out at 60 pM and the Emax is 2090%. Also, the koff in assay [2] was 0.000153 s⁻¹.

B26: Ab0221 (antibody, IgG4, V domains shown)
VH: not shown
VL: B1 VL with S25A
notes: IgG4 PE
Consider B26, for which, in assay [1], the EC50 stood at 90 pM and the Emax stood at 2000%. In assay [2], this molecule gave a koff of 0.00011 s⁻¹.

B27: Ab0223 (antibody, IgG4, V domains shown)
VH: not shown
VL: B1 VL with S25N, D49S
notes: IgG4 PE
Take B27: in assay [1], the concentration giving a half-maximal response (EC50) amounted to 60 pM and the Emax amounted to 2050%. This molecule had a koff in assay [2] of 0.00024 s⁻¹.

B28: Ab0229 (antibody, IgG4, V domains shown)
VH: not shown
VL: B1 VL with S25N, D50H
notes: IgG4 PE
Turning to B28, in assay [1], the EC50 stood at 40 pM and the Emax is 1440%. The molecule further showed a koff in assay [2] of 0.000394 s⁻¹.

B29: Ab0295 (antibody, IgG4, V domains shown)
VH: B1 VH
VL: B1 VL with D49Y
notes: IgG4 PE
For the molecule B29, in assay [1], the EC50 amounted to 70 pM and the Emax was 1310%. The same molecule showed a koff in assay [2] of 0.00157 s⁻¹.

B30: Ab0226 (antibody, IgG4, V domains shown)
VH: not shown
VL: B1 VL with S25N, D49T
notes: IgG4 PE
Consider B30, for which, in assay [1], the EC50 is 110 pM and the Emax turned out to be 1970%. In assay [2], this molecule displayed an off-rate (koff) of 0.00101 s⁻¹.

B31: Ab0205 (antibody, IgG4, V domains shown)
VH: B1 VH
VL: B1 VL with S25N, N93E
notes: IgG4 PE
Consider B31, for which, in assay [1], the 50% effective concentration (EC50) came out at 20 pM and the Emax is 2120%. Moreover, the koff in assay [2] amounted to 0.000334 s⁻¹.
